Results reported in PMC10244618.
Several values for one entry are separate records, joined by “and”; a condition that tells them apart may be missing. Identical values can stand only once.

B1: NF2 (merlin) isoform 7, human, full length (507 aa, lacks exons 2-3 = isoform-1 residues 39-121; exon-16 C-terminus), P35240-4 (parent)
chain: MAGAIASRMSFSSLKRKQPKTFTVRIVTMDAEMEFNCEVKKQILDEKIYCPPEASVLLASYAVQAKYGDYDPSVHKRGFLAQEELLPKRVINLYQMTPEMWEERITAWYAEHRGRARDEAEMEYLKIAQDLEMYGVNYFAIRNKKGTELLLGVDALGLHIYDPENRLTPKISFPWNEIRNISYSDKEFTIKPLDKKIDVFKFNSSKLRVNKLILQLCIGNHDLFMRRRKADSLEVQQMKAQAREEKARKQMERQRLAREKQMREEAERTRDELERRLLQMKEEATMANEALMRSEETADLLAEKAQITEEEAKLLAQKAAEAEQEMQRIKATAIRTEEEKRLMEQKVLEAEVLALKMAEESERRAKEADQLKQDLQEAREAERRAKQKLLEIATKPTYPPMNPIPAPLPPDIPSFNLIGDSLSFDFKDTDMKRLSMEIEKEKVEYMEKSKHLQEQLNELKTEIEALKLKERETALDILHNENSDRGGSSKHNTIKKPQAQGRRPICI

Variants of: B1
Assay: reverse yeast two-hybrid deep mutational scan (rY2H-seq): NF2 isoform 7 mutant library as bait mated with wild-type prey strains; selection on medium lacking adenine for non-interacting pairs; NextSeq paired-end sequencing; enrichment vs …
Settings: yeast diploids after mating (RBait_S3 x RPrey_S3), 30 °C, selection for reporter genes on NB agar, HIGHER = WEAKER BINDING (the opposite of display enrichments): higher = stronger loss of interaction: reverse Y2H selects yeast in which bait and prey do NOT interact (growth without adenine), so a …, hits-only table, scale: rY2H score, numbering: uniprot, sequence starts at 1
[1] = with EMILIN1 (elastin microfibril interfacer 1), Q9Y6C2, human ABL2 co-expressed as the kinase-dead K35M mutant …
[2] = with KDM1A (lysine-specific histone demethylase 1A; the table's label AOF2 is a gene synonym of KDM1A), O60341, human ABL2 co-expressed as the kinase-dead K35M mutant …
[3] = with EMILIN1 (elastin microfibril interfacer 1), Q9Y6C2, human tyrosine kinase ABL2 co-expressed as the active kinase …
[4] = with KDM1A (lysine-specific histone demethylase 1A; the table's label AOF2 is a gene synonym of KDM1A), O60341, human tyrosine kinase ABL2 co-expressed as the active kinase …
[5] = with NF2 C-terminal domain (wild type; homomeric NF2-NF2 interaction), P35240, human ABL2 co-expressed as the kinase-dead K35M mutant …, partner unresolved
[6] = with PIK3R3 (phosphatidylinositol 3-kinase regulatory subunit gamma), Q92569, human tyrosine kinase ABL2 co-expressed as the active kinase …

| enrichment [1] | enrichment [2] | enrichment [3] | enrichment [4] | enrichment [5] | enrichment [6] | Variant |
| --- | --- | --- | --- | --- | --- | --- |
| 16.4 | 19.8 | – | – | – | – | I418W |
| – | 7.73 | 6.14 | 4.64 and 3.28 | 2.09 | 6.79 and 6.06 | L58P |
| – | 2.19 | 4.31 | 4.83 | – | – | A331K |
| 2.6 and 2.58 | 4.61 and 1.64 | 3.27 | 5.02 | – | – | A331L |
| – | – | 2.11 | – | 1.53 | – | A331E |
| – | 1.75 | 1.52 | – | – | – | E123D |
| – | – | 1.55 | – | – | – | R248K |
| – | – | 1.52 | – | – | – | R248P |
| – | – | 6.39 | – | – | 6.23 | A107E |
| – | – | 2.88 | – | – | – | F426V |
| – | 3.99 | 1.63 | – | – | – | F426A |
| 1.79 | – | – | – | – | – | A298K |
| 2.2 | – | 2.24 | 1.53 | – | 1.5 | N137L |
| – | – | 2.55 | – | – | 6.22 | T168A |
| 2.75 | 7.24 | 6.59 and 12.1 | – | – | – | T168L |
| – | 1.53 | 1.47 | – | – | – | N402L |
| – | – | 2.62 | – | – | – | N402Q |
| – | – | 4.58 | – | – | – | A247K |
| – | – | 1.89 | – | – | – | E337A |
| 3.24 | 7.16 | 1.77 | – | – | – | A319K |
| 2.21 | – | – | – | – | – | D411K |
| 2.78 | – | – | – | – | – | M431K |
| – | 8.2 and 3.3 | 8.98 and 8.09 | 7.56 | – | 11.6 | R268E |
| – | – | 4.01 | – | 3.61 | – | T269E |
| – | – | 1.8 | – | – | – | A287T |
| 1.57 | 3.01 and 2.96 | – | 1.77 | 3.42 and 3.26 | 2.55 and 1.61 and 4.74 | E272K |

| enrichment [1] | enrichment [2] | enrichment [3] | enrichment [4] | enrichment [5] | enrichment [6] | Variant |
| --- | --- | --- | --- | --- | --- | --- |
| – | – | 12.8 | – | – | – | E264A |
| – | – | 4.36 | – | 2.08 | – | W175A |
| – | – | 6.77 | – | 1.97 | – | W175E |
| – | – | 2.93 | 4.15 and 7.93 | – | 6.72 | H159L |
| – | – | 1.53 | – | – | – | R471G |
| – | 4.11 | 8.54 | – | – | – | L417I |
| 1.65 | – | – | 2.29 | – | 1.72 | L417K |
| – | – | 2.11 | – | – | – | Q376K |
| 2.08 | – | – | – | 3.07 | – | Q376L |
| – | 17 | 13.1 and 10.8 | – | – | – | K304W |
| 3.12 | 9.24 | 5.18 | 7.08 | 3.55 | 4.61 and 3.92 | Y61L |
| 1.74 | – | – | – | 1.65 | – | E339L |
| – | 2.83 and 2.72 | 4.63 | – | – | – | L342T |
| 1.65 and 3.1 | 6.76 and 4.54 | 2.14 and 6.11 | 1.63 | – | – | L342K |
| – | – | 5.68 and 2.91 | – | – | – | N143I |
| – | 1.85 | 2.6 | 4.79 | – | – | K330A |
| – | – | 6.17 | – | 3.55 | – | K460E |
| – | – | 1.71 | – | – | – | P98L |
| – | – | 1.96 | – | – | – | E367K |
| 5.41 | 13.8 | – | – | 9 | 9.86 | T394L |
| – | – | 2 | – | – | 3.5 and 2.86 | S73K |
| – | – | 4.18 | – | 6.66 | 5.19 | L375K |
| – | – | 1.45 | – | – | – | A240T |
| – | – | 1.45 | – | – | – | L478A |
| – | 5.27 | 7.62 | – | – | – | K386T |
| – | – | 1.42 | – | – | – | A381E |

| enrichment [1] | enrichment [2] | enrichment [3] | enrichment [4] | enrichment [5] | enrichment [6] | Variant |
| --- | --- | --- | --- | --- | --- | --- |
| – | – | 1.43 | – | – | 1.6 | A381V |
| – | – | 1.45 | – | 1.6 | – | A381T |
| – | – | 5.46 | – | – | 8.42 | A381M |
| – | – | 6.7 | – | – | – | N416A |
| – | – | 3.29 | – | – | – | N416R |
| – | – | 4.59 and 3.72 | – | 4.08 | – | S294K |
| – | – | 2.61 | – | – | – | R328T |
| 5.41 | – | – | – | – | – | I463A |
| – | – | 1.39 | – | – | – | R77W |
| – | – | 2.72 | – | – | – | G419L |
| – | – | 1.84 | 1.8 and 1.81 | – | 3.26 | S483E |
| 4.89 | 6.72 | 3.65 | 1.86 | 1.94 | – | M326E |
| – | – | 1.39 | – | – | – | M326R |
| 4.99 | – | 4.25 and 2.98 | – | – | – | L158E |
| – | 3.29 | 1.95 and 2.03 | – | – | 1.55 | K340L |
| 5.14 and 5.74 | 11.1 and 8.25 | 3.48 and 2.42 | 4.76 and 3.86 | 5.73 | 7.65 and 9.27 | N165E |
| 3.8 and 4.08 | 5.23 and 4.34 | 5.59 and 4.51 | 11.8 | 3.7 and 6.3 | – | N165A |
| 3.23 | 1.77 and 4.25 | 1.72 | 2.45 | 1.43 | – | P399E |
| – | – | 2.65 | – | – | – | M446V |
| – | – | 2.78 and 2.12 | 1.49 | – | – | E148K |
| 7.14 | – | 1.82 | – | 10.6 | 1.81 | N176L |
| – | – | 38.6 | – | – | – | A290L |
| – | 4.82 and 4.33 | 1.61 and 3.25 | 5.87 | 5.5 and 4.13 | 3.91 and 3.42 | L156W |
| – | 11.8 and 11.3 | 6 | – | 6.36 and 7.06 | 9.73 and 7.27 | K313T |
| – | 4.15 | 2.11 | 2.54 | – | 2.65 | P407K |
| 8.22 | 13.4 | 5.18 and 15.2 | – | 2.48 | 30 | L214E |

| enrichment [1] | enrichment [2] | enrichment [3] | enrichment [4] | enrichment [5] | enrichment [6] | Variant |
| --- | --- | --- | --- | --- | --- | --- |
| – | – | 1.56 | – | 1.47 | – | A128V |
| – | – | 9.16 | 2.16 | – | – | A266K |
| – | 9.12 and 4.16 | 1.53 | – | – | – | P410K |
| – | – | 1.87 | 6.13 | – | – | D69K |
| – | – | 4.17 | – | – | – | E362K |
| – | – | 4.2 | – | 1.46 | – | L315K |
| 3.8 | 2.62 and 6.59 | – | – | – | – | L315E |
| 2.64 | 11.9 and 4.42 | 4.87 | – | 4.53 | – | A365E |
| – | – | 2.05 | – | – | – | S55L |
| – | – | 1.55 | – | – | 3.14 | A393K |
| 2.13 | 5.66 | – | – | 3.02 | – | E325L |
| – | 3.73 | 2.68 | – | – | – | E325A |
| – | 4.73 | 6.21 | – | – | – | E325T |
| 3.84 and 3.98 | 10.5 and 10.2 | – | – | 5.98 | – | A368K |
| 1.6 | 2.38 | – | – | 1.76 | 1.85 and 3.91 | P405E |
| 3.57 and 2.37 | – | – | – | – | 4.58 | P405Q |
| – | – | 5.05 | – | 7.16 | – | P405L |
| 2.66 and 1.9 | 2.96 | 2.2 and 3.37 | 2.24 | 5.45 | – | T308K |
| 2.52 | 4.56 and 4.18 | 3.39 | – | – | – | A320L |
| – | 1.65 | 1.65 | – | 1.58 | – | S488R |
| – | – | 3.15 | – | – | – | E282L |
| – | – | 3.91 and 4.27 | – | – | – | G146A |
| – | – | 1.92 | – | – | – | D198N |
| 3.13 and 2.01 | – | 6.81 | – | – | 5.85 | Y161W |
| 3.35 and 1.58 | 2.08 | – | – | – | 2.22 | Y161L |
| – | 1.84 and 3.01 | 1.45 | – | 1.8 | – | E323A |
